According to patent publication US20180022819A1 (APTEVO RESEARCH AND DEVELOPMENT, published 2018):

Target: prostate-specific membrane antigen (PSMA) (human, UniProt Q04609 1-750)
Assay: cell-based or functional assay

Chain of prostate-specific membrane antigen (PSMA) (Q04609 whole entry): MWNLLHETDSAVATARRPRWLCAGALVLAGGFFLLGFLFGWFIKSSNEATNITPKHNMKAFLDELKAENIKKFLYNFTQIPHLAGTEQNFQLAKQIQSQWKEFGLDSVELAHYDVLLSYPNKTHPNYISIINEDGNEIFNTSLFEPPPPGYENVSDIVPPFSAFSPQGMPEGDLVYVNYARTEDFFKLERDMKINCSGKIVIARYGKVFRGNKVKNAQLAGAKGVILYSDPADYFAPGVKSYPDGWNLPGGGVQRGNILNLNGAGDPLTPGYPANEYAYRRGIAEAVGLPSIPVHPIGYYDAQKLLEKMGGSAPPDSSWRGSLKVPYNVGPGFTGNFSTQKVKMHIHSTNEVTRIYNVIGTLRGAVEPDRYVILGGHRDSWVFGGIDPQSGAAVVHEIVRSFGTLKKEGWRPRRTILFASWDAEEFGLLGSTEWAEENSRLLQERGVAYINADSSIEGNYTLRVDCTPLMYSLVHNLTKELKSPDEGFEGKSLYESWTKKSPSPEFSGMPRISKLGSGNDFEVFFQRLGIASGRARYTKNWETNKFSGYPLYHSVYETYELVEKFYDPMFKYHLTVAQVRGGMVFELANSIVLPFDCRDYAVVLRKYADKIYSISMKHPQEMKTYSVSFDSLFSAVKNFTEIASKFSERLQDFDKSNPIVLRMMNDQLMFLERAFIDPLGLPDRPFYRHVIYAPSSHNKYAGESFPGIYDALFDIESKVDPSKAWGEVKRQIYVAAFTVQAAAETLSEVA

B1: humanized TSC249 (huVL-VH#2 107-1A4 scFv-Fc-DRA222 scFv) (bispecific antibody)
chain: DIQMTQSPSAMSASVGDRVTITCRASKSISKYLAWFQQKPGKVPKLRIHSGSTLQSGVPSRFSGSGSGTEFTLTISSLQPEDFATYYCQQHIEYPWTFGQGTKVEIKRGGGGSGGGGSGGGGSQVQLVQSGAEVKKPGASVKVSCKASGYTFTDYYMHWVRQAPGQGLEWMGYFNPYNDYTRYAQKFQGRVTMTRDTSISTAYMELSSLRSDDTAVYYCARSDGYYDAMDYWGQGTTVTVSSSEPKSSDKTHTCPPCPAPEAAGAPSVFLFPPKPKDTLMISRTPEVTCVVVDVSHEDPEVKFNWYVDGVEVHNAKTKPREEQYNSTYRVVSVLTVLHQDWLNGKAYACAVSNKALPAPIEKTISKAKGQPREPQVYTLPPSRDELTKNQVSLTCLVKGFYPSDIAVEWESNGQPENNYKTTPPVLDSDGSFFLYSKLTVDKSRWQQGNVFSCSVMHEALHNHYTQKSLSLSPGQRHNNSSLNTGTQMAGHSPNSQVQLVESGGGVVQPGRSLRLSCKASGYTFTRSTMHWVRQAPGQGLEWIGYINPSSAYTNYNQKFKDRFTISADKSKSTAFLQMDSLRPEDTGVYFCARPQVHYDYNGFPYWGQGTPVTVSSGGGGSGGGGSGGGGSAQDIQMTQSPSSLSASVGDRVTMTCSASSSVSYMNWYQQKPGKAPKRWIYDSSKLASGVPARFSGSGSGTDYTLTISSLQPEDFATYYCQQWSRNPPTFGGGTKLQITSSS
EC50 of % live cells, GFP-LNCaP growth inhibition assay, 4 days with primary human T-cells (3:1): 15 pM
EC50 of % specific lysis, 51Cr release assay, 4 hours, untreated 22Rv1 target cells with donor T-cells (5:1): 0.8 pM
